Substitutions are numbered along the chain they refer to. Numbers in names are those of the source. Where “and” joins values, the source holds several entries; their conditions need not be identical. Identical values can stand only once. Ends that are not written are not given here.
How the values were obtained:
[1] = test system: Las17 12mer peptides / GST-Sla1 SH3 domains; assay: Peptide spot array (Celluspot) of Las17 12mers probed with GST-Sla1 SH3 domains; type: binding, Saccharomyces cerevisiae; settings: GST-Sla1 SH3 domain on 12mer array, 2-residue offset, anti-GST HRP, chemiluminescence
Description: A Purified individual GST-tagged Sla1 SH3 domains were used to probe a Celluspot array consisting of a series of 12 amino acid peptides starting with residue 181, and subsequent peptides starting at two amino acid intervals, up to amino acid 540. Binding of GST-Sla1 SH3 to the array was identified by further probing of HRP-tagged anti-GST and subsequent visualisation using chemiluminescence. […] Error bars are standard error of mean.
They were incubated with GST fused SH3 domains of Sla1 or with GST alone, as described in ref.[57]. Membranes were probed with HRP tagged anti-GST, and the presence of SH3-GST fusion protein was detected with ECL chemiluminescent detection solution (Thermo Fisher Scientific).

[2] = test system: Las17-Arp2/3 mediated actin polymerisation; settings: 15 nM Las17, 1 µM Sla1 SH3 domains, ref [13]; cited from earlier work
From the text: In Sla1 the first two SH3 domains are immediately juxtaposed with no linker. There are then 236 residues before the third SH3 domain (Fig. 1A).

[3] = test system: Las17-GFP and Arc15-mCherry; assay: Dual-reporter lifetimes, Las17-GFP and Arc15-mCherry co-localisation; type: cell-based, Saccharomyces cerevisiae; parameters: lifetime, GFP alone / lifetime, GFP and RFP / lifetime, RFP: unit not given here; settings: sheet Fig9E, individual endocytic patches, one per cell
Description: A size bar for each set of kymographs is shown on the upper right of each set. For (A) and (C) size bar is 100 nm and for B is 200 nm. Error bars are standard deviation. […] The site of interest is labelled in the first two time panels with a white arrow. Exposure 0.5 sec with 1 second time lapse. 120 s recorded. […] Error bars are standard deviation.
Individual spots were analysed for lifetimes and behaviours.
Yeast strains used in this study are listed in Supplementary table 2 and plasmids used in Supplementary table 1. Unless stated otherwise, cells were grown with rotary shaking at 30 °C in liquid YPD medium (1% yeast extract, 2% Bacto-peptone, 2% glucose supplemented with 40 μg/ml adenine) or in synthetic medium (0.67% yeast nitrogen base, 2% glucose) with appropriate supplements. […] DNA cassettes carrying mutations for integration were transformed into KAY1801. Mutant colonies were counter-selected on minimal medium, containing 0.005% uracil and 0.1% 5’-Fluoroorotic Acid (5-FOA; Melford laboratories). Allele exchange, in growing Ura3^-, 5-FOA resistant colonies, was confirmed by PCR and sequencing.
For live-cell imaging, cells expressing tagged proteins were visualised after growing to early log phase. Analysis was carried out at room temperature (22 °C). […] Images were taken simultaneously on separate scientific complementary metal oxide semiconductor (sCMOS) cameras (30 msec exposure). Seven 250 nm sections were acquired every 0.5 sec (241 time points). The stacks were then deconvolved and processed, using SoftWorx. Protein localisation and lifetime was analysed from those projections. Fiji software was used to assemble movies and kymographs, to track and record behaviour of individual spots. Graphs show mean ± SD. […] Where appropriate data was tested for normal distribution using Graphpad Prism software, and then subjected to the appropriate test as described in the methods for each experiment type.

[4] = biological target: T1, Sla1 SH3#1-2 tandem domains (aa 5-131) (S. cerevisiae, UniProt P32790 5-131, 15N-labelled (NMR only)); assay: NMR titration; 15N-labelled Sla1 SH3 domains, 1H-15N HSQC; concentrated peptide stocks in the same buffer and pH added stepwise (0 to 8 equivalents shown); shift changes fitted to the standard quadratic equation; settings: both partners purified
T1 construct: Sla1, S. cerevisiae, first two SH3 domains (juxtaposed, no linker), residues 5-131; also called Sla1 SH3 domains 1 and 2; tandem SH3#1&2 domain; source: E. coli, purified (GST fusion, cleaved with Prescission protease; His-tagged Sla1-SH3 domains were also made); 15N- or 15N,13C-labelled for NMR
T1 sequence (looked up): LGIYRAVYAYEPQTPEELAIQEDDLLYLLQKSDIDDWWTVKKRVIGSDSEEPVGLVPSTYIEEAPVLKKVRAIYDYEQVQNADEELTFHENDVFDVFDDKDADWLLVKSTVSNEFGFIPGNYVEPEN

[5] = biological target: T2, Las17 PPR-N fragment (residues 300-422), wild type (S. cerevisiae, UniProt Q12446 300-422); assay: BLI; Octet R2 (Sartorius); Octet NTA Biosensors or Octet GST Biosensors, which partner was loaded is not stated; repeated three times; the constant of SH3#1-3 is called apparent; settings: both partners purified
T2 construct: Las17 (yeast WASP family protein, Las17/Bee1), S. cerevisiae, residues 300-422 (N-terminal half of the polyproline region, PPR-N); also called Las17(300-422); Las17 300-422; source: E. coli, purified (GST fusion on glutathione Sepharose, cleaved with PreScission Protease; a His-tagged form purified on a nickel column was also made)

[6] = biological target: Las17 PPR-N fragment (residues 300-422); assay: Biolayer Interferometry (BLI), Sla1 SH3 domains to Las17 PPR-N; type: binding, Saccharomyces cerevisiae; settings: Biolayer Interferometry, Octet R2, Las17 (aa 300-422); three repeats with newly prepared protein; read-out: binding affinity (Kd)
From the text: To investigate binding characteristics of the SH3 domains further, Sla1 SH3 protein domains were purified. Three Sla1 SH3 single domains, tandem domains Sla1 SH3#1&2, Sla1 SH3#1&2 W108A (in which the W108A mutation prevents proline motif binding by SH3#2 but not SH3#1) and a fragment with all three SH3 domains were expressed recombinantly and purified. […] This outcome is in line with original research of Rodal and colleagues and with more recent studies of avidity developed by Williamson, which highlighted the importance of tandem binding SH3 domains[13],[27].
Biolayer Interferometry (BLI) assays were performed using an OctetⓇ R2 (Sartorius). Protein samples were placed into the wells of a polystyrene plate (ProxiPlateTM, Perkin Elmer) and binding measured either with Octet NTA Biosensors or Octet GST Biosensors. Screening assays were performed to determine the optimum loading concentration and time for each binding pair to ensure that the probe was not saturated. All experiments were repeated three times, each time with newly prepared protein. Analysis and visualisation were performed using GraphPad Prism 10.0.2.

[7] = Liposome co-sedimentation assay; type: binding; parameters: unit: %
Description: Liposome binding assays were carried out as described previously. To prepare liposomes 11 μl of a 25 mg/ml solution of Folch fraction-1 was dried under a nitrogen stream. They were washed in chloroform, dried under nitrogen, and further washed with diethyl ether to remove all traces of chloroform before being dried again. The dried lipid mixture was resuspended in 200 µl of buffer B (20 mM HEPES pH 7.2, 100 mM KCl, 2 mM MgCl2, 1 mM DTT) at 37 °C for 30 min with regular gentle agitation. Liposomes were then extruded 11 times through polycarbonate filters with 1.0 μm pores. For liposome binding assays 20 μM Sla1 (pre-spun at 313,000 × g for 15 min) was mixed with 20 μl liposomes in buffer B, (final volume 50 µl) and incubated at room temperature for 15 min. Liposomes and bound protein were pelleted by centrifugation at 250,000 × g for 15 min, and supernatants and pellets carefully separated. The pellets were resuspended in 50 µl buffer B and samples were analysed by SDS-PAGE. The proportion of protein in each sample was determined by densitometry of the Coomassie stained gels using a BioRad GelDoc. Replicate experiments were carried out with protein from different preparations. To normalise the data the amount of protein in the supernatant and pellet of each sample was added together to give a value for 100%, and then the % in either the supernatant or pellet alone was calculated. When liposomes were included in the pyrene actin assay they were prepared as described for liposome binding assays, but the dried lipid mixture was resuspended in 5×KME in place of liposome buffer. This was then used as a source of KME in the pyrene actin assay as well as a source of lipid. Mean ± SD is shown n = 6. Sîdák’s multiple comparisons test was carried out using Graphpad Prism software, **** denotes two tailed P value of < 0.0001.
Liposome binding studies: triplicate experiments were carried out with protein from different preparations. To normalise the data the amount of protein in the supernatant and pellet of each sample was added together to give a value for 100%, and then the % in either the supernatant or pellet alone was calculated. Mean ± SD is shown n = 6. Sîdák’s multiple comparisons test was carried out using Graphpad Prism software, **** denotes two tailed P value of < 0.0001.

For “Sla1 SH3#3: SH3#3 (aa 354-413) (SKKRGIVQYDFMAESQDELTIKSGDKVYILDDKKSKDWWMCQLVDSGKSGLVPAQFIEPV; also: 15N-labelled)”, the “binding to Las17 peptide spots” value [1] is given as “strongest binding for peptides in proline tracts 1 and 3” and the “inhibition of actin polymerisation activity” value [2] is given as “not”.

With “wt: wild type cells with Las17-GFP and Arc15-mCherry” the “lifetime, GFP alone” value [3] was 20 (3×) and 22 (4×) and 18 (2×) and 28 and 24 and 26 (2×), the “lifetime, GFP and RFP” value [3] was 30 and 44 and 36 and 32 (4×) and the “lifetime, RFP” value [3] was 34 and 48 and 44 and 36 (3×) and 46.

B1: Las17 peptide p1 (PP1 motif) (peptide)
peptide: RNNRPVPPPPPMRTTTEGSGVR
notes: Las17, S. cerevisiae, first PP motif; also called peptide 1; source: synthetic peptide (GenScript Biotech, UK)
With B1 the “Kd at site SH3#1” value [4] was about 70 µM and the “Kd at site SH3#2” value [4] was about 550 µM.

B2: Las17 peptide p3 (PP3 motif) (peptide)
peptide: LPAQTGRRGPAPPPPPRASRPTP
notes: Las17, S. cerevisiae, third PP motif; also called peptide 3; source: synthetic peptide (GenScript Biotech, UK)
In the case of B2, the “Kd at site SH3#1” value [4] is reported as about 24 µM and the “Kd at site SH3#2” value [4] is reported as about 190 µM.

B3: Sla1 SH3#1 (aa 3-68) (domain or fragment, S. cerevisiae, UniProt P32790 3-68, looked up)
chain: VFLGIYRAVYAYEPQTPEELAIQEDDLLYLLQKSDIDDWWTVKKRVIGSDSEEPVGLVPSTYIEEA
notes: Sla1, S. cerevisiae, first SH3 domain, residues 3-68; also called Sla1 SH3 domain 1; source: E. coli, purified (GST fusion, GST removed with thrombin; His-tagged Sla1-SH3 domains were also made)
With B3 the Kd [5] was 7.5 µM.

B4: Sla1 SH3#1: Sla1 SH3#1 (aa 3-68) (protein)
chain: B3 chain
modifications: left off: GST, end not stated, kept
In the case of B4, the “binding to Las17 peptide spots” value [1] is listed as “preference for sequences in the Las17 proline tracts 2 and 3” and the “inhibition of actin polymerisation activity” value [2] is listed as “about 80%”.

B5: Sla1 SH3#3 (aa 354-413) (domain or fragment, S. cerevisiae, UniProt P32790 354-413, looked up)
chain: SKKRGIVQYDFMAESQDELTIKSGDKVYILDDKKSKDWWMCQLVDSGKSGLVPAQFIEPV
modifications: also: 15N-labelled
notes: Sla1, S. cerevisiae, third SH3 domain, residues 354-413; also called Sla1 SH3 domain 3; source: E. coli, purified (GST fusion, GST removed with thrombin; His-tagged Sla1-SH3 domains were also made); 15N-labelled for NMR
With B5 the Kd [5] was 16 µM.

B6: Sla1 SH3 1&2-W108A: W108A mutation prevents proline motif binding by SH3#2 but not SH3#1 (protein, UniProt P32790 5-131, looked up, variant W108A)
chain: T1 sequence (looked up) with W104A
Work on B6 yielded a Kd [6] of 7.4 µM.

B7: GST-Sla1 SH3#1-3: GST-tagged Sla1 SH3#1-3 containing the predicted PH domain (protein, UniProt P32790 5-413, looked up, fragment)
chain: LGIYRAVYAYEPQTPEELAIQEDDLLYLLQKSDIDDWWTVKKRVIGSDSEEPVGLVPSTYIEEAPVLKKVRAIYDYEQVQNADEELTFHENDVFDVFDDKDADWLLVKSTVSNEFGFIPGNYVEPENGSTSKQEQAPAAAEAPAATPAAAPASAAVLPTNFLPPPQHNDRARMMQSKEDQAPDEDEEGPPPAMPARPTATTETTDATAAAVRSRTRLSYSDNDNDDEEDDYYYNSNSNNVGNHEYNTEYHSWNVTEIEGRKKKKAKLSIGNNKINFIPQKGTPHEWSIDKLVSYDNEKKHMFLEFVDPYRSLELHTGNTTTCEEIMNIIGEYKGASRDPGLREVEMASKSKKRGIVQYDFMAESQDELTIKSGDKVYILDDKKSKDWWMCQLVDSGKSGLVPAQFIEPV
modifications: GST tag
notes: GST-tagged Sla1 SH3#1-3 containing the predicted PH domain
With B7 the liposome co-sedimentation ([7]; 20 μM Sla1, buffer B, room temperature 15 min, 250,000 × g) was “co-precipitates with liposomes”, the liposome co-sedimentation ([7]; - lipid, replicate 1) was 0 and the liposome co-sedimentation ([7]; - lipid, replicate 2) was 11.5044. For the same molecule, the liposome co-sedimentation ([7]; - lipid, replicate 3) was 0, the liposome co-sedimentation ([7]; - lipid, replicate 4) was 2.9 and the liposome co-sedimentation ([7]; - lipid, replicate 5) was 3. The liposome co-sedimentation ([7]; - lipid, replicate 6) was 5.

From publication PMC12081870 (Communications Biology, 2025)
